Molecular target: Aβ1-28 peptide, biotinylated (Anaspec)
Assay: ELISA on biotinylated peptide, Ab 10 µg/ml, mean of 2, background subtracted
Settings: remark: other sources report otherwise

Chain of Aβ1-28 peptide, biotinylated (Anaspec) (chain, as listed by the source): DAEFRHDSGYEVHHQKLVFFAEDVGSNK

O.D. (mean): -0.02 O.D.
B1: ACI-12-Ab-11 (antibody, V domains shown)
VL: QAVVTQESALTTSPGGTVILTCRSSTGAVTTSNYANWVQEKPDHLFTGLIGGTSNRAPGVPVRFSGSLIGDKAALTITGAQTEDDAMYFCALWYSTHYVFGGGTKVTVL
VH: QVQLQQSDAELVKPGASVKISCKVSGYTFTDHTIHWMKQRPEQGLEWIGYIYPRDGSTKYNEKFKGKATLTADKSSSTAYMQLNSLTSEDSAVYFCARDYGYAFDYWGQGTTLTVSS
modifications: here or on the partner: biotinylated (position not given)

Reference: patent EP2170953B1
